Reference: paper PMC4880302, “A Chimeric Pneumovirus Fusion Protein Carrying Neutralizing Epitopes of Both MPV and RSV” (PLoS ONE, 2016)

Biological target: T1, wild-type HMPV F protein (soluble, secreted, with C-terminal GCNt trimerization domain) (human metapneumovirus, B2 strain)
T1 construct: fusion (F) glycoprotein of human metapneumovirus, B2 strain; soluble secreted form, GCNt joined in-frame with the heptad repeat of the C-terminal HRB; Preparations are mixtures of pre- and post-fusion forms; heating to 50°C for 30 min converts them to the post-fusion form (written as assays of their own); The trimer may rest in part on the GCNt domain; also called wt HMPV F; MPV F-GCNt; not …
Assay: SPR; BiOptix 404pi; F proteins captured on NiHC1000m chip through their C-terminal His tag to 120 RU; Fab injected at 300 to 0.14 nM, 100 ul/min; 10 mM HEPES pH 7.2, 150 mM NaCl, 0.005% Tween 20, 50 uM EDTA; simple Langmuir model
Settings: both partners purified

B1: motavizumab Fab (affinity-matured variant of palivizumab, anti-RSV F site II/A) (Fab, V domains shown)
VH: QVTLRESGPALVKPTQTLTLTCTFSGFSLSTAGMSVGWIRQPPGKALEWLADIWWDDKKHYNPSLKDRLTISKDTSKNQVVLKVTNMDPADTATYYCARDMIFNFYFDVWGQGTTVTVSS
VL: DIQMTQSPSTLSASVGDRVTITCSASSRVGYMHWYQQKPGKAPKLLIYDTSKLASGVPSRFSGSGSGTEFTLTISSLQPDDFATYYCFQGSGYPFTFGGGTKVEIK
notes: heavy chain of the Fab in the motavizumab:RSV peptide complex PDB 3IXT; light chain of the Fab in the motavizumab:RSV peptide complex PDB 3IXT; Variable genes cloned into pEE6.4 (heavy) and pEE12.4 (light) vectors (Lonza); constant parts of the Fab construct are not described; source: FreeStyle 293-F cells, co-transfected (PEI), purified from supernatant (protein G column)
B1: no binding.
